{"source": "paper PMC7980781", "binders": {"B1": {"name": "Purified 6xHis tagged recombinant FLCN, Q8NFG4 1-579 (natural protein)", "chain": "MNAIVALCHFCELHGPRTLFCTEVLHAPLPQGDGNEDSPGQGEQAEEEEGGIQMNSRMRAHSPAEGASVESSSPGPKKSDMCEGCRSLAAGHPGYISHDKETSIKYVSHQHPSHPQLFSIVRQACVRSLSCEVCPGREGPIFFGDEQHGFVFSHTFFIKDSLARGFQRWYSIITIMMDRIYLINSWPFLLGKVRGIIDELQGKALKVFEAEQFGCPQRAQRMNTAFTPFLHQRNGNAARSLTSLTSDDNLWACLHTSFAWLLKACGSRLTEKLLEGAPTEDTLVQMEKLADLEEESESWDNSEAEEEEKAPVLPESTEGRELTQGPAESSSLSGCGSWQPRKLPVFKSLRHMRQVLGAPSFRMLAWHVLMGNQVIWKSRDVDLVQSAFEVLRTMLPVGCVRIIPYSSQYEEAYRCNFLGLSPHVQIPPHVLSSEFAVIVEVHAAARSTLHPVGCEDDQSLSKYEFVVTSGSPVAADRVGPTILNKIEAALTNQNLSVDVVDQCLVCLKEEWMNKVKVLFKFTKVDSRPKEDTQKLLSILGASEEDNVKLLKFWMTGLSKTYKSHLMSTVRSPTASESRN"}}, "molecular_target": "T1, Purified 6xHis tagged recombinant FLCN, Q8NFG4", "T1 chain": "B1 chain", "test": "native gel or EMSA", "details": "remark: other sources report otherwise"}
{"binder": "B1", "values": [{"measurement": "stoichiometry N", "result": 2}]}
